B1: N^α1-[(4S)-4-carboxy-4-(19-carboxynonadecanoylamino)butanoyl]-[Glu14,Arg17,Pro21,Pro27,Pro31]-h-amylin (peptide)
peptide: {C20 diacid-γGlu}-KCNTATCATQRLAEFLRHSSPNFGAIPSSTPVGSNTY-NH2
modifications: disulfide 2-7
SMILES: CC[C@H](C)[C@H](NC(=O)[C@H](C)NC(=O)CNC(=O)[C@H](Cc1ccccc1)NC(=O)[C@H](CC(N)=O)NC(=O)[C@@H]1CCCN1C(=O)[C@H](CO)NC(=O)[C@H](CO)NC(=O)[C@H](Cc1c[nH]cn1)NC(=O)[C@H](CCCNC(=N)N)NC(=O)[C@H](CC(C)C)NC(=O)[C@H](Cc1ccccc1)NC(=O)[C@H](CCC(=O)O)NC(=O)[C@H](C)NC(=O)[C@H](CC(C)C)NC(=O)[C@H](CCCNC(=N)N)NC(=O)[C@H](CCC(N)=O)NC(=O)[C@@H](NC(=O)[C@H](C)NC(=O)[C@@H]1CSSC[C@H](NC(=O)[C@H](CCCCN)NC(=O)CC[C@H](NC(=O)CCCCCCCCCCCCCCCCCCC(=O)O)C(=O)O)C(=O)N[C@@H](CC(N)=O)C(=O)N[C@@H]([C@@H](C)O)C(=O)N[C@@H](C)C(=O)N[C@@H]([C@@H](C)O)C(=O)N1)[C@@H](C)O)C(=O)N1CCC[C@H]1C(=O)N[C@@H](CO)C(=O)N[C@@H](CO)C(=O)N[C@H](C(=O)N1CCC[C@H]1C(=O)N[C@H](C(=O)NCC(=O)N[C@@H](CO)C(=O)N[C@@H](CC(N)=O)C(=O)N[C@H](C(=O)N[C@@H](Cc1ccc(O)cc1)C(N)=O)[C@@H](C)O)C(C)C)[C@@H](C)O
notes: Derivative of human amylin; also called compound 31
B2: N^α1-[(4S)-4-carboxy-4-(19-carboxynonadecanoylamino)butanoyl]-[His14,Arg17,Pro21,Pro27,Glu35]-h-amylin (peptide)
peptide: {C20 diacid-γGlu}-KCNTATCATQRLAHFLRHSSPNFGAIPSSTNVGSETY-NH2
modifications: disulfide 2-7
SMILES: CC[C@H](C)[C@H](NC(=O)[C@H](C)NC(=O)CNC(=O)[C@H](Cc1ccccc1)NC(=O)[C@H](CC(N)=O)NC(=O)[C@@H]1CCCN1C(=O)[C@H](CO)NC(=O)[C@H](CO)NC(=O)[C@H](Cc1c[nH]cn1)NC(=O)[C@H](CCCNC(=N)N)NC(=O)[C@H](CC(C)C)NC(=O)[C@H](Cc1ccccc1)NC(=O)[C@H](Cc1c[nH]cn1)NC(=O)[C@H](C)NC(=O)[C@H](CC(C)C)NC(=O)[C@H](CCCNC(=N)N)NC(=O)[C@H](CCC(N)=O)NC(=O)[C@@H](NC(=O)[C@H](C)NC(=O)[C@@H]1CSSC[C@H](NC(=O)[C@H](CCCCN)NC(=O)CC[C@H](NC(=O)CCCCCCCCCCCCCCCCCCC(=O)O)C(=O)O)C(=O)N[C@@H](CC(N)=O)C(=O)N[C@@H]([C@@H](C)O)C(=O)N[C@@H](C)C(=O)N[C@@H]([C@@H](C)O)C(=O)N1)[C@@H](C)O)C(=O)N1CCC[C@H]1C(=O)N[C@@H](CO)C(=O)N[C@@H](CO)C(=O)N[C@H](C(=O)N[C@@H](CC(N)=O)C(=O)N[C@H](C(=O)NCC(=O)N[C@@H](CO)C(=O)N[C@@H](CCC(=O)O)C(=O)N[C@H](C(=O)N[C@@H](Cc1ccc(O)cc1)C(N)=O)[C@@H](C)O)C(C)C)[C@@H](C)O
notes: Derivative of human amylin; also called compound 30
B3: N^α1-[(4S)-4-carboxy-4-(19-carboxynonadecanoylamino)butanoyl]-[Glu14,Arg17,Pro21,Pro27,Pro34]-h-amylin (peptide)
peptide: {C20 diacid-γGlu}-KCNTATCATQRLAEFLRHSSPNFGAIPSSTNVGPNTY-NH2
modifications: disulfide 2-7
SMILES: CC[C@H](C)[C@H](NC(=O)[C@H](C)NC(=O)CNC(=O)[C@H](Cc1ccccc1)NC(=O)[C@H](CC(N)=O)NC(=O)[C@@H]1CCCN1C(=O)[C@H](CO)NC(=O)[C@H](CO)NC(=O)[C@H](Cc1c[nH]cn1)NC(=O)[C@H](CCCNC(=N)N)NC(=O)[C@H](CC(C)C)NC(=O)[C@H](Cc1ccccc1)NC(=O)[C@H](CCC(=O)O)NC(=O)[C@H](C)NC(=O)[C@H](CC(C)C)NC(=O)[C@H](CCCNC(=N)N)NC(=O)[C@H](CCC(N)=O)NC(=O)[C@@H](NC(=O)[C@H](C)NC(=O)[C@@H]1CSSC[C@H](NC(=O)[C@H](CCCCN)NC(=O)CC[C@H](NC(=O)CCCCCCCCCCCCCCCCCCC(=O)O)C(=O)O)C(=O)N[C@@H](CC(N)=O)C(=O)N[C@@H]([C@@H](C)O)C(=O)N[C@@H](C)C(=O)N[C@@H]([C@@H](C)O)C(=O)N1)[C@@H](C)O)C(=O)N1CCC[C@H]1C(=O)N[C@@H](CO)C(=O)N[C@@H](CO)C(=O)N[C@H](C(=O)N[C@@H](CC(N)=O)C(=O)N[C@H](C(=O)NCC(=O)N1CCC[C@H]1C(=O)N[C@@H](CC(N)=O)C(=O)N[C@H](C(=O)N[C@@H](Cc1ccc(O)cc1)C(N)=O)[C@@H](C)O)C(C)C)[C@@H](C)O
notes: Derivative of human amylin; also called compound 32
B4: N^α1N^α1-[(4S)-4-carboxy-4-(19-carboxynonadecanoylamino)butanoyl]-[Glu14,Arg17,Pro21,Pro27,Glu35]-h-amylin (peptide)
peptide: {C20 diacid-γGlu}-KCNTATCATQRLAEFLRHSSPNFGAIPSSTNVGSETY-NH2
modifications: disulfide 2-7
SMILES: CC[C@H](C)[C@H](NC(=O)[C@H](C)NC(=O)CNC(=O)[C@H](Cc1ccccc1)NC(=O)[C@H](CC(N)=O)NC(=O)[C@@H]1CCCN1C(=O)[C@H](CO)NC(=O)[C@H](CO)NC(=O)[C@H](Cc1c[nH]cn1)NC(=O)[C@H](CCCNC(=N)N)NC(=O)[C@H](CC(C)C)NC(=O)[C@H](Cc1ccccc1)NC(=O)[C@H](CCC(=O)O)NC(=O)[C@H](C)NC(=O)[C@H](CC(C)C)NC(=O)[C@H](CCCNC(=N)N)NC(=O)[C@H](CCC(N)=O)NC(=O)[C@@H](NC(=O)[C@H](C)NC(=O)[C@@H]1CSSC[C@H](NC(=O)[C@H](CCCCN)NC(=O)CC[C@H](NC(=O)CCCCCCCCCCCCCCCCCCC(=O)O)C(=O)O)C(=O)N[C@@H](CC(N)=O)C(=O)N[C@@H]([C@@H](C)O)C(=O)N[C@@H](C)C(=O)N[C@@H]([C@@H](C)O)C(=O)N1)[C@@H](C)O)C(=O)N1CCC[C@H]1C(=O)N[C@@H](CO)C(=O)N[C@@H](CO)C(=O)N[C@H](C(=O)N[C@@H](CC(N)=O)C(=O)N[C@H](C(=O)NCC(=O)N[C@@H](CO)C(=O)N[C@@H](CCC(=O)O)C(=O)N[C@H](C(=O)N[C@@H](Cc1ccc(O)cc1)C(N)=O)[C@@H](C)O)C(C)C)[C@@H](C)O
notes: Derivative of human amylin; also called compound 22
B5: N^α1-[(4S)-4-carboxy-4-(19-carboxynonadecanoylamino)butanoyl]-[Glu14,Arg17,Pro21,Pro28,Glu35]-h-amylin (peptide)
peptide: {C20 diacid-γGlu}-KCNTATCATQRLAEFLRHSSPNFGAILPSTNVGSETY-NH2
modifications: disulfide 2-7
SMILES: CC[C@H](C)[C@H](NC(=O)[C@H](C)NC(=O)CNC(=O)[C@H](Cc1ccccc1)NC(=O)[C@H](CC(N)=O)NC(=O)[C@@H]1CCCN1C(=O)[C@H](CO)NC(=O)[C@H](CO)NC(=O)[C@H](Cc1c[nH]cn1)NC(=O)[C@H](CCCNC(=N)N)NC(=O)[C@H](CC(C)C)NC(=O)[C@H](Cc1ccccc1)NC(=O)[C@H](CCC(=O)O)NC(=O)[C@H](C)NC(=O)[C@H](CC(C)C)NC(=O)[C@H](CCCNC(=N)N)NC(=O)[C@H](CCC(N)=O)NC(=O)[C@@H](NC(=O)[C@H](C)NC(=O)[C@@H]1CSSC[C@H](NC(=O)[C@H](CCCCN)NC(=O)CC[C@H](NC(=O)CCCCCCCCCCCCCCCCCCC(=O)O)C(=O)O)C(=O)N[C@@H](CC(N)=O)C(=O)N[C@@H]([C@@H](C)O)C(=O)N[C@@H](C)C(=O)N[C@@H]([C@@H](C)O)C(=O)N1)[C@@H](C)O)C(=O)N[C@@H](CC(C)C)C(=O)N1CCC[C@H]1C(=O)N[C@@H](CO)C(=O)N[C@H](C(=O)N[C@@H](CC(N)=O)C(=O)N[C@H](C(=O)NCC(=O)N[C@@H](CO)C(=O)N[C@@H](CCC(=O)O)C(=O)N[C@H](C(=O)N[C@@H](Cc1ccc(O)cc1)C(N)=O)[C@@H](C)O)C(C)C)[C@@H](C)O
notes: Derivative of human amylin; also called compound 33

Numbered stars: 1 amine (or outer) side, 2 acyl side, 3 side chain; on linkers, the order of the positions; unused ones are H or OH. Bridge positions count the residues as written; N and C are the ends. * marks the point of attachment. C20 diacid = O=C(O)CCCCCCCCCCCCCCCCCCC(=O)*; γGlu = O=C(O)[C@H](CCC(=O)[*:2])N[*:1]

In one experiment the target is T1, rat amylin receptor (rat calcitonin receptor + rat RAMP 3) (rat, UniProt P32214 25-516; Q9JJ73 23-147).
T1 construct: whole, on cells; Used as membranes prepared from the transfected cells; also called rAmylin-R; rat amylin 3(a) receptor
T1 sequence (looked up) 1: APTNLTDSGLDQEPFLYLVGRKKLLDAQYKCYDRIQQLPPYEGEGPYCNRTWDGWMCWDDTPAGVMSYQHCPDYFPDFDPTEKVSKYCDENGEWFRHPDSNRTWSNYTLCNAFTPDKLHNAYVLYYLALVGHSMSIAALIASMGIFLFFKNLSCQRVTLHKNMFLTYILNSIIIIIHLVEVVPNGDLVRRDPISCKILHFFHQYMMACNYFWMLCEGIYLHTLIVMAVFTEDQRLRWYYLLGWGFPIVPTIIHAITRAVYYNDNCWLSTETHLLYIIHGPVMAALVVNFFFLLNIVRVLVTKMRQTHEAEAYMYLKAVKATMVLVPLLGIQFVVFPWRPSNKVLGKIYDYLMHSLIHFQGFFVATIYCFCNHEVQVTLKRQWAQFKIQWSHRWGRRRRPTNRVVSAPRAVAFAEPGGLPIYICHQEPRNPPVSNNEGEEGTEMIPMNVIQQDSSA
T1 sequence (looked up) 2: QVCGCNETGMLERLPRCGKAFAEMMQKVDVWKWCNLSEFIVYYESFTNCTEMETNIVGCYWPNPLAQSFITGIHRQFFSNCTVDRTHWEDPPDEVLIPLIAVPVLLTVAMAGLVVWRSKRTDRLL
Description: SPA competition with 125I-rat amylin, membranes of BHK cells with rat calcitonin receptor + rat RAMP3 (Assay VI).
B1: the IC50 amounted to 0.619 nM.

Regarding B2, the IC50 came to 3.14 nM.

For the molecule B3, the IC50 was found to be 0.176 nM.

In the case of B4, the IC50 stood at 2.19 nM.

As for B5, the IC50 stood at 2.29 nM.

The target of a further experiment is T2, rat calcitonin receptor (rat, UniProt P32214 25-516).
T2 construct: whole, on cells; Used as membranes prepared from the transfected cells; also called rCTR; rat calcitonin (a) receptor
T2 sequence (looked up): T1 sequence (looked up) 1
Briefly: SPA competition with 125I-calcitonin, membranes of BHK cells with rat calcitonin receptor (Assay VIII).
Take B1: the IC50 was found to be 26.5 nM.

B2: the IC50 was 114 nM.

In the case of B3, the half-inhibitory concentration (IC50) was 5.98 nM.

For B4, the IC50 worked out at 62.5 nM.

B5: the 50% inhibitory concentration (IC50) came to 28.9 nM.

Another experiment deals with T3, human calcitonin receptor (human, UniProt P30988 25-474).
T3 construct: whole, on cells; Used as membranes prepared from the transfected cells (Assay VII); also called hCTR; hCT
T3 sequence (looked up): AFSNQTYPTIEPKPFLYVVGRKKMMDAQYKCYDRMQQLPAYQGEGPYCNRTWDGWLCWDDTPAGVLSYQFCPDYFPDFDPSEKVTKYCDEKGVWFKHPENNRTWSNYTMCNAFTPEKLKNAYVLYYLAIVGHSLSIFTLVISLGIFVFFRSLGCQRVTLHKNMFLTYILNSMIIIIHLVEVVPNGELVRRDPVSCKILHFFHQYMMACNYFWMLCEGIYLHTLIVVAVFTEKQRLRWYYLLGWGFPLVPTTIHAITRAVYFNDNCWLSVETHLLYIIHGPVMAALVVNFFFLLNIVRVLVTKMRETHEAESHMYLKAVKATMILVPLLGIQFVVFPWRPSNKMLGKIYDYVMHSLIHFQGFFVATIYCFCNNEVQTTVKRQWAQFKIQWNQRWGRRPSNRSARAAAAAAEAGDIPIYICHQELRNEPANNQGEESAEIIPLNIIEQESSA
Briefly: ratio IC50 human calcitonin receptor / IC50 human amylin receptor (Assays VII and V). Summed up: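 Competition binding by SPA with cell membranes (35 ng/μL) and SPA beads in 50 mM Hepes pH 7.4 with 1 mM CaCl2, 5 mM MgCl2, 0.1% OA and 0.02% Tween20. Incubated 120 min at 25 °C with shaking, then counted.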
Take B1: the “Ratio hCT/hAmylin binding” value turned out to be 16.

For B2, the “Ratio hCT/hAmylin binding” value worked out at 23.6.

With B3, the “Ratio hCT/hAmylin binding” value was 10.9.

For B4, the “Ratio hCT/hAmylin binding” value was found to be 12.3.

Take B5: the “Ratio hCT/hAmylin binding” value came out at 3.9.

For a further experiment, the target named is T2, rat calcitonin receptor. Description: ratio IC50 rat calcitonin receptor / IC50 rat amylin receptor (Assays VIII and VI).
B1: the “Ratio rCT/rAmylin binding” value was 42.8.

On to B2, for which the “Ratio rCT/rAmylin binding” value is 36.1.

Consider B3, for which the “Ratio rCT/rAmylin binding” value stood at 34.

As to B4, the “Ratio rCT/rAmylin binding” value turned out to be 28.5.

Regarding B5, the “Ratio rCT/rAmylin binding” value was 12.6.

These data come from patent US20140087995A1 (published 2014).
